We go through 41 sequences from the nanobody polyreactivity screen of Harvey et al. (2022).

This data set in a line: yeast display, Sf9 membrane polyspecificity reagent, FACS + sequencing; frameworks hold sequencing errors. In short, it runs like this:
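After 36–48 hours of galactose induction, yeast (Saccharomyces cerevisiae BJ5465) displaying a synthetic nanobody library were stained at 4 °C for 1 hour with 10% biotinylated, detergent-solubilized Sf9 membrane reagent. Streptavidin microbeads enriched the stained cells before FACS sorting into low and high (top ~1%) gates on anti-HA and streptavidin fluorescence. Each clone's polyreactivity label reflects its gate of origin.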
Turning to “QVQLVDSGGALVQAGGSLRLSCAASGSTFAYYAMGWYRQAPGKERELVAAITASATNTYYADSVKGRFTISRDNAKNTVYLQMNSLKPEDTAVYYCAADDVDVEHQASWDDYDSWGQGTQVTVSS”, the “polyreactivity (PSR sort gate)” value is recorded as “low polyreactivity”.
For the sequence “QVQLVDSGGALVQAGGSLRLSCAASGSTFVVNAIGWYRQAPGKERELVAAIAGGGSTNYADSVKGRFTISRDNAKNTVYLQMNSLKPEDTAVYYCAVDGVEFSSYGYWGQGTQVTVSS”, the “polyreactivity (PSR sort gate)” value is on record as “low polyreactivity”.
As for “QVQLVDSGGGIVQAGGSLRLSCAASGLTFSDYAMGWYRQAPGKEREFVAAITRNGGSTRYADSVKGRFTISRDNAKNTVYLQMNSLKPEDTAVDYCATDVGFGSKQRPHRPGYGYWGQGTQVTVSS”, the “polyreactivity (PSR sort gate)” value is recorded as “low polyreactivity”.
Regarding “QVQLVDSGGGIVQAGGSLRLSCAASGSTLKYNAMGWYRQAPGKERELVAAISTSGGNTYYADSVKGRFTISRDNAKNTVYLQMNSLKPEDTAVYYCAKVLGYYYYDYDSWGQGTQVTVSS”, the “polyreactivity (PSR sort gate)” value was “low polyreactivity”.
Turning to “QVQLVDSGGGIVQAGGSLRLSCAASGTFDAYAMGWYRQEPGKERELVASISSSGGSTYYADSVKGRFTITRDNAKNTVYLQMYSLNPEDRAVYYCAATDFWYSGYYWGKGTQVTVSS”, the “polyreactivity (PSR sort gate)” value is on record as “low polyreactivity”.
Consider “QVQLVDSGGGKVQAGGSLRLSCAASGRTFLVYAMGWYRQAPGKERELVAAISRSGGRTSYADSVKGRFTISRDNAKNTVYLQMNSLKPEDTAVYYCAASGPPCDMDYWGQGTQVTVSS”, for which the “polyreactivity (PSR sort gate)” value is given as “high polyreactivity”.
For “QVQLVDSGGGLFQAGGSLRLSCAASGSTFYRYAKGWYRQAPGKERELVATITNSGGSTYYADSVKGRFTISRDNAKNTVYLPRNSLKPEDTAVYYCAAVGGRLRGDRGGYWGQGSQVTVSS”, the “polyreactivity (PSR sort gate)” value is “high polyreactivity”.
As for “QVQLVDSGGGLVQAAGSLRLSCAASGSTFVTYAMGGYRTAPGKERELVAAISSGAGTNYADSVKGRFTISRDNAKNTVYLQMNSLKPEDTAVDYCAADKAVGDSTRYYYWGQGTQVTVSS”, the “polyreactivity (PSR sort gate)” value is on record as “low polyreactivity”.
Take “QVQLVDSGGGLVQAGASLRLSCAASGIIFTGYAKGWYRQAPGKERDLVAAISGIGTSTYYADSVKGRFTISRDNAKNTVYLQMNSLKPEDTAVYYCAARYVSRRFLGYYYWGQGTQVTVSS”: the “polyreactivity (PSR sort gate)” value is “high polyreactivity”.
As to “QVQLVDSGGGLVQAGASLRLSCAASGSIFRFYAMGWYRQAPGKERELVAAITSRGSTNYADSVKGRFTISRDNAKNTVYLQMKSLKPEDTAVYYCAAELVYFVIYDYWGLGTQVTVSS”, the “polyreactivity (PSR sort gate)” value is listed as “low polyreactivity”.
Consider “QVQLVDSGGGLVQAGATLRLSGAASGRIFGCNAMGWYRQAPGKVRELVAAISNGGSTYYADSVKGRFTISRDNAKNTVYFQMNSLKPEDTAVYYCNAAARIGYARRFYYWGQGTQVTVSS”, for which the “polyreactivity (PSR sort gate)” value was “high polyreactivity”.
The result for “QVQLVDSGGGLVQAGCSLRLSCAASGSTFVTNDMGWSRKAPGKERELVAAISSGTSTNYADSVKGRFTISRDNAKNTFYLQMNSLNPEDTAVYYCAADSLKRDDYWGQGTQVTVSS” reads “low polyreactivity”.
For the sequence “QVQLVDSGGGLVQAGGILRLICAASGSTFGFYAMGWYRQAPGKERELVAAITTGGSTNYADSVKGRFTISRDNAKNTVYLQMNSLKPEDTAVYYCNADVFWNPYYDYDFWGQGTQVTVSS”, the “polyreactivity (PSR sort gate)” value is listed as “high polyreactivity”.
In the case of “QVQLVDSGGGLVQAGGILRLSCAASGFILSDNAMGWYRQGPGKERELVAAINSGGSTYYADSVKGRFTISRDNAMNTVYLQMNSLKPEDTAVYYCAADFSTWLRAYDYWGQGTQVTVSS”, the “polyreactivity (PSR sort gate)” value is on record as “low polyreactivity”.
In the case of “QVQLVDSGGGLVQAGGILRLSCAASGNIIYQNALVWSRHAPGKERELVAAITGRGSSTYYADSVKGRFTSSRDNAKNTVYLQMNSLKPEDTAVYYCAADTTPYDGYYGHGYWGQGTQVTVSS”, the “polyreactivity (PSR sort gate)” value is on record as “low polyreactivity”.
On to “QVQLVDSGGGLVQAGGILRLSCAASGSIFSSYAMGWYRQAPGKERELVAAITSGGSTYYADSVKGRFTISRDNAKITVYLQMNSLKREDTAVYYCAAYLSYFGYDYWGQGTQVTVSS”, for which the “polyreactivity (PSR sort gate)” value was “low polyreactivity”.
For the sequence “QVQLVDSGGGLVQAGGILRLSCAASGSTFDVYAIGWYRQAPGKEWELVAAITWDGDRTYYADSVKGRFTISRDNAKNTVYLQMNSLKPEDTGVYYCNADEGGNYREDYWGQGTQVTVSS”, the “polyreactivity (PSR sort gate)” value is listed as “low polyreactivity”.
Consider “QVQLVDSGGGLVQAGGRLRLSCAASGITFYYNAMGWYRQAPGKERELVATISSRGGSTYYADSVKGRFTISRDNAKNTVYLQMNSLKPEDTEVYYCNAGRSRYRWSTTGYTQVRDDYWGQATQVTVSS”, for which the “polyreactivity (PSR sort gate)” value is “high polyreactivity”.
Turning to “QVQLVDSGGGLVQAGGRLRLSCAASGRTFSKYAMGWYRQAPGKERELVASITRSGGSTNYADTVKGRFTISRDNAKNTVYLQKNSLKPEDTAVYYCRRKLGRTHDTGFDYWGQGTQVTVSS”, the “polyreactivity (PSR sort gate)” value is “low polyreactivity”.
Regarding “QVQLVDSGGGLVQAGGRLRLSCAASGSTFGWYGMGWYIQAPGKERELVASINWRGSSTYYADSVKGRFTMSRDNAKNTVYLQMNSLKPEDTAVYYCATTRDWAYNYWGQGTQVTVSS”, the “polyreactivity (PSR sort gate)” value is recorded as “low polyreactivity”.
As to “QVQLVDSGGGLVQAGGRLRLSCAPSGSIIIDNAMGWYRQAPGKERELVAAISSSGGSTHYADSVKGRFTISRDNAKNTVYLQMNSLKPEDTAVYYCAAKRGWRGGYYWGQGTQVTVSS”, the “polyreactivity (PSR sort gate)” value was “high polyreactivity”.
Take “QVQLVDSGGGLVQAGGSHRLSCADSGTFVYNAMGWYRQAPGKEREFVAAITKSGTSTSYADSVKGRFTISRDNAKNTVYLQMNSLIPEATAVYYCNARRYWYRRAYSVGYDYWGQGTQVTVSA”: the “polyreactivity (PSR sort gate)” value is “high polyreactivity”.
For the sequence “QVQLVDSGGGLVQAGGSLGLSCAASGSIFRNYAMGWYRQAPGKERELVAAISYRVGRTYYADSVKGRFTISRDNAKNSVYLQMNSLNPEDTAVYYCAADSRSPGHDYWGQGTQVTVSS”, the “polyreactivity (PSR sort gate)” value is given as “low polyreactivity”.
As to “QVQLVDSGGGLVQAGGSLPLSCAASGFSFVYYAMAWYREAPGKEREFVAAITERGGSTDYADSVKGRFTISRDNAKNTVYLQMNSLKPEDTAVYYCASRNAYVYGMDYWGQGTQVTVSS”, the “polyreactivity (PSR sort gate)” value was “low polyreactivity”.
For “QVQLVDSGGGLVQAGGSLRITCAASVLTFRRNPMGWYRQAPGKARELLGTITSGGSTNYADTVKGRFTISRDNAKNTVYLQMNSLKPEDTAVYYCNSVHLRIMYYWGQGTQVTVSS”, the “polyreactivity (PSR sort gate)” value was “high polyreactivity”.
Next, “QVQLVDSGGGLVQAGGSLRLICAASGFIFTDYAMGWYRQAPGKEREFFAAIDWSGGNTYYADSVKGRFTISRDNAKNTVYLQMKSLKPEDTAVYYCAASGSAREYDYWGQGTQVTVSS”: “low polyreactivity”; “QVQLVDSGGGLVQAGGSLRLICAASGRSFYNYAMGRYSEAPGKERELVAAIAGSGGSTYYADSEKGRVTISRDNAKNTGYLQMNSLKPEDTAVDYCSTSGPQYYSRNFDDWGQGTQVTVSS”: “low polyreactivity”.
Consider “QVQLVDSGGGLVQAGGSLRLISAASGLIFSWYDKGWYRQAPGKERELVAAITTDGDDTYYADSVKGRFTISRDNAKNTVYLQMNSLKPDDTAVYYCAADSELGIRYPDRDYDSWGLGTQVTVSS”, for which the “polyreactivity (PSR sort gate)” value is listed as “low polyreactivity”.
As to “QVQLVDSGGGLVQAGGSLRLSCAASGFIFGKYAMGWYRPAPGKEREFVAAITGNGGSTYYADSVKGRFTISRDNAKNTVYLQMNSLKPEDTAVYYCAADASWELFAWAHYDYWGQGTQVTVSS”, the “polyreactivity (PSR sort gate)” value was “low polyreactivity”.
Turning to “QVQLVDSGGGLVQAGGSLRLSCAASGFIFHRYAMGWYRQAPGKERELVAAISSSGGSTYYADSVKGRFTISRDNAKNTVYLQMNSLKPEDTAVYYCAAYYHDGYEFNYWGQGTQLTVSS”, the “polyreactivity (PSR sort gate)” value is recorded as “high polyreactivity”.
In the case of “QVQLVDSGGGLVQAGGSLRLSCAASGFIFKGNAMGWSRQAPGKERELVAAISRSGGRTYYADSVKGRFTISRENAKNTVYLEMNSLKPEDTAVYYGATEGDSFSAYDYWVQGTQVTVSS”, the “polyreactivity (PSR sort gate)” value is reported as “high polyreactivity”.
For “QVQLVDSGGGLVQAGGSLRLSCAASGFIFKRYAMGWYRQAPGKERELVAAINGGGSSTYYADSVKGRFTISRDNAKNTVYLQMNSLKPDDTAVYYCAADTDSWWYYLYYGEGFDYWGQGTQVTVSS”, the “polyreactivity (PSR sort gate)” value is listed as “high polyreactivity”.
As for “QVQLVDSGGGLVQAGGSLRLSCAASGFIFSWYAMGWYRQAPGKERELVAAINWSGGSTYYADSVKGRFTISRDNAKNTVYLQMNSLKPEDTAVYYCAAVTSGISKYDYWGQGTQVTVSS”, the “polyreactivity (PSR sort gate)” value is given as “high polyreactivity”.
With “QVQLVDSGGGLVQAGGSLRLSCAASGFIIGYNAMGWYRQAPGKEREFVAAISYNGGSTRYADSVKGRFTISRDNAKNTVYLQMNSLKPEDTAVYYCAAQKARVYRGAWTRYEYWGQGTQVTVSS”, the “polyreactivity (PSR sort gate)” value is listed as “high polyreactivity”.
For the sequence “QVQLVDSGGGLVQAGGSLRLSCAASGFTFADNAMGWYRQAPGKEREFVAAITWTADSTYYADSVKGRFTISRDNAKNTVYVQMNSLKPEDTAVYYCAASYSTIWTLYYYWGQGTQVTVSS”, the “polyreactivity (PSR sort gate)” value is given as “low polyreactivity”.
The result for “QVQLVDSGGGLVQAGGSLRLSCAASGFTIHYKAMGWYRQAPGKERELVATISKSAGITSYADSVKGRFTISRDNAKNTVYLQMNSLNPEDTAVYYCAADKSYRRVYYWGQGTQVTVSS” reads “low polyreactivity”.
Consider “QVQLVDSGGGLVQAGGSLRLSCAASGFTIVHNAMGWYRQAPGKERELVAAISSSGGRTYYADSVKGRFTISRDNAKNTVYLQMNSLKPEDTAVYYCNARGYRGYDYWGQGTQVTVSS”, for which the “polyreactivity (PSR sort gate)” value is given as “high polyreactivity”.
With “QVQLVDSGGGLVQAGGSLRLSCAASGGTISQYAMGWYRQAPGKERELVARISRRGGSTSYADSVKGRFTISRDNAKNTVYLQMNSLKPEDTAVYYCNAVRFYGRWRWIMEYWGQGSQVTVSS”, the “polyreactivity (PSR sort gate)” value was “high polyreactivity”.
Next, “QVQLVDSGGGLVQAGGSLRLSCAASGGTISSYAMGWYRQAPGKERELVADITRRGGSTYYADSVKGRFTISRDNAKNTVYLQMNSLKPEDTAVYYCAAEWFRQGHRGLDYWGQGTQVTVSS”: “high polyreactivity”; “QVQLVDSGGGLVQAGGSLRLSCAASGIIFPVYAMGWYRQAPGKERELVAAITYSGDRTYYADSVKGRFTISRDNAKNTVYLQMNSLKPEDSAVYYCNARFGVWPYFYNEDDYWGQGTQVTVSS”: “low polyreactivity”.
On to “QVQLVDSGGGLVQAGGSLRLSCAASGIILVNNAMGWYRQAPGKEREFVAAIRYSAGSTYYADSVKGRFTISRDNAKTTVYLQMNSLKPEDTAVYYCNAVRYPTRGYYPYRYGYWGQGTQVNVSS”, for which the “polyreactivity (PSR sort gate)” value is recorded as “high polyreactivity”.
